Results published in patent US20250333508A1.

How the values were obtained:
[1] = target: human CTLA-4 his tag antigen (human) (UniProt P16410); experiment: ELISA on coated human CTLA-4 his tag protein, goat anti-human IgG-Fc HRP; unit from the axis; the isotype curve is flat at OD450 0, so the number comes from a fit of a flat line
[2] = target: murine CTLA-4. his tag protein (murine) (UniProt P09793); experiment: ELISA on coated mouse CTLA-4 his tag protein, goat anti-human IgG-Fc HRP; unit from the axis; the isotype curve is flat at OD450 0, so the number comes from a fit of a flat line
Chain of UniProt P09793 (P09793 36-161 limits assumed): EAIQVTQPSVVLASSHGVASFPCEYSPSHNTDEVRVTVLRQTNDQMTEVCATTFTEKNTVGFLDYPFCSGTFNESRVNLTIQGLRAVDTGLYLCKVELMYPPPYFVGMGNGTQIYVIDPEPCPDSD

[3] = target: cynomolgus monkey CTLA-4. his tag protein (cynomolgus monkey) (UniProt G7PL88); experiment: ELISA on coated cynomolgus monkey CTLA-4 his tag protein, goat anti-human IgG-Fc HRP; unit from the axis; the isotype curve is flat at OD450 0, so the number comes from a fit of a flat line
Chain of UniProt G7PL88 (G7PL88 entry or part of it limits assumed): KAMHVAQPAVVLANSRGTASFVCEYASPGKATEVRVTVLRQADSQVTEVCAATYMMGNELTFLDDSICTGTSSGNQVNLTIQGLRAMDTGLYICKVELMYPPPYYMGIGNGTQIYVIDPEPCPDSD

Chain of UniProt P16410 (P16410 36-161 limits assumed): as the sequence (G7PL88 entry or part of it limits assumed) above, with N14S, T18I, M106L counted along it

EC50 [1]: 5.74 nM
EC50 [2]: 5.74 nM
EC50 [3]: 5.74 nM
Substance: Isotype (antibody)
